Experimental data from patent US20250171562A1.

B1: NIgG4B3A1(G4S)1 (Fc fusion)
chain 1: DVQLQESGGGLVQAGGSLRLSCAASGFIFRLAGMSWVRQAPGKGFEWVSGITMDGSTTNYADSVKGRFTISRDNSKNRLYLQMNSLKPEDTAVYYCARGAKGGYNDPRGQGTQVTVSGGGGSGPPCPPCPAPEFLGGPSVFLFPPKPKDTLMISRTPEVTCVVVDVSQEDPEVQFNWYVDGVEVHNAKTKPREEQFNSTYRVVSVLTVLHQDWLNGKEYKCKVSNKGLPSSIEKTISKAKGQPREPQVYTLPPCQEEMTKNQVSLWCLVKGFYPSDIAVEWESNGQPENNYKTTPPVLDSDGSFFLYSRLTVDKSRWQEGNVFSCSVMHEALHNHYTQKSLSLSLGK
chain 2: EVQLLESGGGLVQPGGSLRLSCAASGFTFGNYDMAWVRQAPGKRPEWVSSIDTGGDITHYADSVKGRFTISRDNAKNTLYLQMNSLRPEDTAVYWCATDEEYALGPNEFDYYGQGTLVTVSSGGGGSGPPCPPCPAPEFLGGPSVFLFPPKPKDTLMISRTPEVTCVVVDVSQEDPEVQFNWYVDGVEVHNAKTKPREEQFNSTYRVVSVLTVLHQDWLNGKEYKCKVSNKGLPSSIEKTISKAKGQPREPQVCTLPPSQEEMTKNQVSLSCAVKGFYPSDIAVEWESNGQPENNYKTTPPVLDSDGSFFLVSRLTVDKSRWQEGNVFSCSVMHEALHNHYTQKSLSLSLGK
B2: NIgG4B3A1(G4S)2 (Fc fusion)
chain 1: DVQLQESGGGLVQAGGSLRLSCAASGFIFRLAGMSWVRQAPGKGFEWVSGITMDGSTTNYADSVKGRFTISRDNSKNRLYLQMNSLKPEDTAVYYCARGAKGGYNDPRGQGTQVTVSGGGGSGGGGSGPPCPPCPAPEFLGGPSVFLFPPKPKDTLMISRTPEVTCVVVDVSQEDPEVQFNWYVDGVEVHNAKTKPREEQFNSTYRVVSVLTVLHQDWLNGKEYKCKVSNKGLPSSIEKTISKAKGQPREPQVYTLPPCQEEMTKNQVSLWCLVKGFYPSDIAVEWESNGQPENNYKTTPPVLDSDGSFFLYSRLTVDKSRWQEGNVFSCSVMHEALHNHYTQKSLSLSLGK
chain 2: EVQLLESGGGLVQPGGSLRLSCAASGFTFGNYDMAWVRQAPGKRPEWVSSIDTGGDITHYADSVKGRFTISRDNAKNTLYLQMNSLRPEDTAVYWCATDEEYALGPNEFDYYGQGTLVTVSSGGGGSGGGGSGPPCPPCPAPEFLGGPSVFLFPPKPKDTLMISRTPEVTCVVVDVSQEDPEVQFNWYVDGVEVHNAKTKPREEQFNSTYRVVSVLTVLHQDWLNGKEYKCKVSNKGLPSSIEKTISKAKGQPREPQVCTLPPSQEEMTKNQVSLSCAVKGFYPSDIAVEWESNGQPENNYKTTPPVLDSDGSFFLVSRLTVDKSRWQEGNVFSCSVMHEALHNHYTQKSLSLSLGK
B3: NIgG4B3A1(G4S)3 (Fc fusion)
chain 1: DVQLQESGGGLVQAGGSLRLSCAASGFIFRLAGMSWVRQAPGKGFEWVSGITMDGSTTNYADSVKGRFTISRDNSKNRLYLQMNSLKPEDTAVYYCARGAKGGYNDPRGQGTQVTVSGGGGSGGGGSGGGGSGPPCPPCPAPEFLGGPSVFLFPPKPKDTLMISRTPEVTCVVVDVSQEDPEVQFNWYVDGVEVHNAKTKPREEQFNSTYRVVSVLTVLHQDWLNGKEYKCKVSNKGLPSSIEKTISKAKGQPREPQVYTLPPCQEEMTKNQVSLWCLVKGFYPSDIAVEWESNGQPENNYKTTPPVLDSDGSFFLYSRLTVDKSRWQEGNVFSCSVMHEALHNHYTQKSLSLSLGK
chain 2: EVQLLESGGGLVQPGGSLRLSCAASGFTFGNYDMAWVRQAPGKRPEWVSSIDTGGDITHYADSVKGRFTISRDNAKNTLYLQMNSLRPEDTAVYWCATDEEYALGPNEFDYYGQGTLVTVSSGGGGSGGGGSGGGGSGPPCPPCPAPEFLGGPSVFLFPPKPKDTLMISRTPEVTCVVVDVSQEDPEVQFNWYVDGVEVHNAKTKPREEQFNSTYRVVSVLTVLHQDWLNGKEYKCKVSNKGLPSSIEKTISKAKGQPREPQVCTLPPSQEEMTKNQVSLSCAVKGFYPSDIAVEWESNGQPENNYKTTPPVLDSDGSFFLVSRLTVDKSRWQEGNVFSCSVMHEALHNHYTQKSLSLSLGK
B4: NIgG4B1A2(RS) (Fc fusion)
chain 1: QVQLQESGGGLVQTGGSLRLSCAVHGRTFSNTGMGWFRQAPGNERQFVAIISPSGTSTYYADSVKGRFTISRDPAKNTVYLQMNSLKMDDTAVYYCAASYGSNWSTLRHQRRNEYDAWGQGTQVAVSRSGPPCPPCPAPEFLGGPSVFLFPPKPKDTLMISRTPEVTCVVVDVSQEDPEVQFNWYVDGVEVHNAKTKPREEQFNSTYRVVSVLTVLHQDWLNGKEYKCKVSNKGLPSSIEKTISKAKGQPREPQVYTLPPCQEEMTKNQVSLWCLVKGFYPSDIAVEWESNGQPENNYKTTPPVLDSDGSFFLYSRLTVDKSRWQEGNVFSCSVMHEALHNHYTQKSLSLSLGK
chain 2: EVQLLESGGGLVQPGGSLRLSCAASGFRFGNYDMAWVRQAPGKRYEWVSSIDTGGDITHYADSVKGRFTISRDNAKNTLYLQMNSLRPEDTAEYWCATDEEYALGPNEFDYYGQGTLVTVSRSGPPCPPCPAPEFLGGPSVFLFPPKPKDTLMISRTPEVTCVVVDVSQEDPEVQFNWYVDGVEVHNAKTKPREEQFNSTYRVVSVLTVLHQDWLNGKEYKCKVSNKGLPSSIEKTISKAKGQPREPQVCTLPPSQEEMTKNQVSLSCAVKGFYPSDIAVEWESNGQPENNYKTTPPVLDSDGSFFLVSRLTVDKSRWQEGNVFSCSVMHEALHNHYTQKSLSLSLGK
B5: NIgG4B1A2(G4S)1 (Fc fusion)
chain 1: QVQLQESGGGLVQTGGSLRLSCAVHGRTFSNTGMGWFRQAPGNERQFVAIISPSGTSTYYADSVKGRFTISRDPAKNTVYLQMNSLKMDDTAVYYCAASYGSNWSTLRHQRRNEYDAWGQGTQVAVSGGGGSGPPCPPCPAPEFLGGPSVFLFPPKPKDTLMISRTPEVTCVVVDVSQEDPEVQFNWYVDGVEVHNAKTKPREEQFNSTYRVVSVLTVLHQDWLNGKEYKCKVSNKGLPSSIEKTISKAKGQPREPQVYTLPPCQEEMTKNQVSLWCLVKGFYPSDIAVEWESNGQPENNYKTTPPVLDSDGSFFLYSRLTVDKSRWQEGNVFSCSVMHEALHNHYTQKSLSLSLGK
chain 2: EVQLLESGGGLVQPGGSLRLSCAASGFRFGNYDMAWVRQAPGKRYEWVSSIDTGGDITHYADSVKGRFTISRDNAKNTLYLQMNSLRPEDTAEYWCATDEEYALGPNEFDYYGQGTLVTVSGGGGSGPPCPPCPAPEFLGGPSVFLFPPKPKDTLMISRTPEVTCVVVDVSQEDPEVQFNWYVDGVEVHNAKTKPREEQFNSTYRVVSVLTVLHQDWLNGKEYKCKVSNKGLPSSIEKTISKAKGQPREPQVCTLPPSQEEMTKNQVSLSCAVKGFYPSDIAVEWESNGQPENNYKTTPPVLDSDGSFFLVSRLTVDKSRWQEGNVFSCSVMHEALHNHYTQKSLSLSLGK
B6: NIgG4B1A2(G4S)2 (Fc fusion)
chain 1: QVQLQESGGGLVQTGGSLRLSCAVHGRTFSNTGMGWFRQAPGNERQFVAIISPSGTSTYYADSVKGRFTISRDPAKNTVYLQMNSLKMDDTAVYYCAASYGSNWSTLRHQRRNEYDAWGQGTQVAVSGGGGSGGGGSGPPCPPCPAPEFLGGPSVFLFPPKPKDTLMISRTPEVTCVVVDVSQEDPEVQFNWYVDGVEVHNAKTKPREEQFNSTYRVVSVLTVLHQDWLNGKEYKCKVSNKGLPSSIEKTISKAKGQPREPQVYTLPPCQEEMTKNQVSLWCLVKGFYPSDIAVEWESNGQPENNYKTTPPVLDSDGSFFLYSRLTVDKSRWQEGNVFSCSVMHEALHNHYTQKSLSLSLGK
chain 2: EVQLLESGGGLVQPGGSLRLSCAASGFRFGNYDMAWVRQAPGKRYEWVSSIDTGGDITHYADSVKGRFTISRDNAKNTLYLQMNSLRPEDTAEYWCATDEEYALGPNEFDYYGQGTLVTVSGGGGSGGGGSGPPCPPCPAPEFLGGPSVFLFPPKPKDTLMISRTPEVTCVVVDVSQEDPEVQFNWYVDGVEVHNAKTKPREEQFNSTYRVVSVLTVLHQDWLNGKEYKCKVSNKGLPSSIEKTISKAKGQPREPQVCTLPPSQEEMTKNQVSLSCAVKGFYPSDIAVEWESNGQPENNYKTTPPVLDSDGSFFLVSRLTVDKSRWQEGNVFSCSVMHEALHNHYTQKSLSLSLGK
B7: NIgG4B1A2(G4S)3 (Fc fusion)
chain 1: QVQLQESGGGLVQTGGSLRLSCAVHGRTFSNTGMGWFRQAPGNERQFVAIISPSGTSTYYADSVKGRFTISRDPAKNTVYLQMNSLKMDDTAVYYCAASYGSNWSTLRHQRRNEYDAWGQGTQVAVSGGGGSGGGGSGGGGSGPPCPPCPAPEFLGGPSVFLFPPKPKDTLMISRTPEVTCVVVDVSQEDPEVQFNWYVDGVEVHNAKTKPREEQFNSTYRVVSVLTVLHQDWLNGKEYKCKVSNKGLPSSIEKTISKAKGQPREPQVYTLPPCQEEMTKNQVSLWCLVKGFYPSDIAVEWESNGQPENNYKTTPPVLDSDGSFFLYSRLTVDKSRWQEGNVFSCSVMHEALHNHYTQKSLSLSLGK
chain 2: EVQLLESGGGLVQPGGSLRLSCAASGFRFGNYDMAWVRQAPGKRYEWVSSIDTGGDITHYADSVKGRFTISRDNAKNTLYLQMNSLRPEDTAEYWCATDEEYALGPNEFDYYGQGTLVTVSGGGGSGGGGSGGGGSGPPCPPCPAPEFLGGPSVFLFPPKPKDTLMISRTPEVTCVVVDVSQEDPEVQFNWYVDGVEVHNAKTKPREEQFNSTYRVVSVLTVLHQDWLNGKEYKCKVSNKGLPSSIEKTISKAKGQPREPQVCTLPPSQEEMTKNQVSLSCAVKGFYPSDIAVEWESNGQPENNYKTTPPVLDSDGSFFLVSRLTVDKSRWQEGNVFSCSVMHEALHNHYTQKSLSLSLGK
B8: CIgG4B1A2(RS) (Fc fusion)
chain 1: GPPCPPCPAPEFLGGPSVFLFPPKPKDTLMISRTPEVTCVVVDVSQEDPEVQFNWYVDGVEVHNAKTKPREEQFNSTYRVVSVLTVLHQDWLNGKEYKCKVSNKGLPSSIEKTISKAKGQPREPQVYTLPPCQEEMTKNQVSLWCLVKGFYPSDIAVEWESNGQPENNYKTTPPVLDSDGSFFLYSRLTVDKSRWQEGNVFSCSVMHEALHNHYTQKSLSLSLGKRSQVQLQESGGGLVQTGGSLRLSCAVHGRTFSNTGMGWFRQAPGNERQFVAIISPSGTSTYYADSVKGRFTISRDPAKNTVYLQMNSLKMDDTAVYYCAASYGSNWSTLRHQRRNEYDAWGQGTQVAVS
chain 2: GPPCPPCPAPEFLGGPSVFLFPPKPKDTLMISRTPEVTCVVVDVSQEDPEVQFNWYVDGVEVHNAKTKPREEQFNSTYRVVSVLTVLHQDWLNGKEYKCKVSNKGLPSSIEKTISKAKGQPREPQVCTLPPSQEEMTKNQVSLSCAVKGFYPSDIAVEWESNGQPENNYKTTPPVLDSDGSFFLVSRLTVDKSRWQEGNVFSCSVMHEALHNHYTQKSLSLSLGKRSEVQLLESGGGLVQPGGSLRLSCAASGFRFGNYDMAWVRQAPGKRYEWVSSIDTGGDITHYADSVKGRFTISRDNAKNTLYLQMNSLRPEDTAEYWCATDEEYALGPNEFDYYGQGTLVTVS

biological target: mixture of three Der p 2 specific recombinant human IgE clones H10, H12, P4E (human) (UniProt P01854); assay: RBL-SX38 IgE displacement, FACS
Sequence (P01854 other isoform, or with tags, fused parts or gaps): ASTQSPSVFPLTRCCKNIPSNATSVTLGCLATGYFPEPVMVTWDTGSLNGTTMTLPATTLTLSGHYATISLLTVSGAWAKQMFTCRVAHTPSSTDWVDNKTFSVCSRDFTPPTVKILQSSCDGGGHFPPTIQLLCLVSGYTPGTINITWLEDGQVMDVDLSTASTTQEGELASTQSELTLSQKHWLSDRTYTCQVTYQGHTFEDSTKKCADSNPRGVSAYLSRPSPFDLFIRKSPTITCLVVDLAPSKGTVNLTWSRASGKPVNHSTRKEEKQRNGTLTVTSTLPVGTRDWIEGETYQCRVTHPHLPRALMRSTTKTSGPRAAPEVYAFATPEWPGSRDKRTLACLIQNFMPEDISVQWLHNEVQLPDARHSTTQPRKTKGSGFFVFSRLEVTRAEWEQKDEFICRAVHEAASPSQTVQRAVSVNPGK

Point of comparison: B2, Max effect/effect 1 µM 94%. Against it:
- B1 — the same, 94%
- B3 — lower, 93%
- B4 — higher, 99%
- B5 — higher, 100%
- B6 — higher, 100%
- B7 — higher, 100%
- B8 — higher, 99%

Point of comparison: B4, EC50 0.6 nM. Against it:
- B5 — within 1.5-fold, 0.4 nM
- B6 — within 1.5-fold, 0.4 nM
- B7 — within 1.5-fold, 0.5 nM
- B8 — 20-fold higher, 11.9 nM
